Source: publication PMC3994186 (Oncogene, 2013)
Changes are numbered by the printed parent chain. In names and notes the source's numbering stands. Blank lines part the entries; values can stand above or below the binder they belong to.

Molecular target: T1, His-tagged RAD51C (human, UniProt O43502 1-376)
T1 sequence: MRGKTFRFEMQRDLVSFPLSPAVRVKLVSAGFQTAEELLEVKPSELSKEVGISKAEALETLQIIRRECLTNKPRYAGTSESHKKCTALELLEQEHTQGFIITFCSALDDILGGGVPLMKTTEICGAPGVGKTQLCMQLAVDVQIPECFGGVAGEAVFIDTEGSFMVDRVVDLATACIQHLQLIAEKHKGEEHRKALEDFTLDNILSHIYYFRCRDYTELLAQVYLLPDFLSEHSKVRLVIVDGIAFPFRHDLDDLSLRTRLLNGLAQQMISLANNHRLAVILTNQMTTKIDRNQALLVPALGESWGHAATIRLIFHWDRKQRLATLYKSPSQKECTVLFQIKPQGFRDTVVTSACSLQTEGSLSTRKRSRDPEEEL
Test: pull-down

binding result: binds
B1: MBP fused to the WD40 domain of PALB2 (amino acids 859-1186), wild type (domain or fragment)
chain: SELKNPSGSCSVDVSAMFWERAGCKEPCIITACEDVVSLWKALDAWQWEKLYTWHFAEVPVLQIVPVPDVYNLVCVALGNLEIREIRALFCSSDDESEKQVLLKSGNIKAVLGLTKRRLVSSSGTLSDQQVEVMTFAEDGGGKENQFLMPPEETILTFAEVQGMQEALLGTTIMNNIVIWNLKTGQLLKKMHIDDSYQASVCHKAYSEMGLLFIVLSHPCAKESESLRSPVFQLIVINPKTTLSVGVMLYCLPPGQAGRFLEGDVKDHCAAAILTSGTIAIWDLLLGQCTALLPPVSDQHWSFVKWSGTDSHLLAGQKDGNIFVYHYS

binding result: binds
B2: MBP-PALB2 WD40 domain T1030I (domain or fragment)
chain: B1 chain with T172I

binding result: binds
B3: MBP-PALB2 WD40 domain L939W (domain or fragment)
chain: B1 chain with L81W
